Assay results from doi:10.1101/2020.12.24.423824 (bioRxiv, 2020).

Target: RlucII-Rab7A (UniProt P51149 1-207)
Assay: FRET or BRET

Chain of RlucII-Rab7A (P51149 whole entry): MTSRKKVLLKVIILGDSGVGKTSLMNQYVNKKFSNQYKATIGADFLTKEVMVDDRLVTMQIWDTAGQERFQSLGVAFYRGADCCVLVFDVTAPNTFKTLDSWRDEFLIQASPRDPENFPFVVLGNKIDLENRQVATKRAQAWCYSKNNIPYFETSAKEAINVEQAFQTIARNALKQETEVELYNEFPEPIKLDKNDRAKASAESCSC

Row | fold increase of BRET50 in CLN5KO cells against wild-type HeLa cells [fold] | Binder
1 | 2.85 | GFP10-CLN3 (natural protein, UniProt Q13286 1-438, looked up) MGGCAGSRRRFSDSEGEETVPEPRLPLLDHQGAHWKNAVGFWLLGLCNNFSYVVMLSAAHDILSHKRTSGNQSHVDPGPTPIPHNSSSRFDCNSVSTAAVLLADILPTLVIKLLAPLGLHLLPYSPRVLVSGICAAGSFVLVAFSHSVGTSLCGVVFASISSGLGEVTFLSLTAFYPRAVISWWSSGTGGAGLLGALSYLGLTQAGLSPQQTLLSMLGIPALLLASYFLLLTSPEAQDPGGEEEAESAARQPLIRTEAPESKPGSSSSLSLRERWTVFKGLLWYIVPLVVVYFAEYFINQGLFELLFFWNTSLSHAQQYRWYQMLYQAGVFASRSSLRCCRIRFTWALALLQCLNLVFLLADVWFGFLPSIYLVFLIILYEGLLGGAAYVNTFHNIALETSDEHREFAMAATCISDTLGISLSGLLALPLHDFLCQLS
2 | 3 | RILP-GFP10 (natural protein, UniProt Q96NA2 1-401, looked up) MEPRRAAPGVPGWGSREAAGSASAAELVYHLAGALGTELQDLARRFGPEAAAGLVPLVVRALELLEQAAVGPAPDSLQVSAQPAEQELRRLREENERLRRELRAGPQEERALLRQLKEVTDRQRDELRAHNRDLRQRGQETEALQEQLQRLLLVNAELRHKLAAMQTQLRAAQDRERERQQPGEAATPQAKERARGQAGRPGHQHGQEPEWATAGAGAPGNPEDPAEAAQQLGRPSEAGQCRFSREEFEQILQERNELKAKVFLLKEELAYFQRELLTDHRVPGLLLEAMKVAVRKQRKKIKAKMLGTPEEAESSEDEAGPWILLSDDKGDHPPPPESKIQSFFGLWYRGKAESSEDETSSPAPSKLGGEEEAQPQSPAPDPPCSALHEHLCLGASAAPEA
